# Molecular target: T1, modified GPR75 (GPR75-GFP10-11 modified protein complex) (Homo sapiens, UniProt O95800, A308G/DEL234-307/I309H/INS313[…]/N310Y)
# T1 construct: obesity-related receptor GPR75 (1-395); signal peptide (N); made in house; The clamp protein is made in E. coli Rosetta 2 (DE3), as described for GFP-clamp
# Test: SPR determination of affinity of purified modified GPR75 to CCL5 ligand
# Type: binding
# Conditions: Biacore 8K, Series S Sensor SA chip, pH 7.4; values only in FIG. 79 C
# Protocol: The purification and identification method of the modified GPR75 fusion protein refers to Example 4. The difference is that during the purification, GFP-clamp-avi-biotin was added rather than GFP-clamp. The molecular sieve chromatography result graph of the modified fusion protein is seen in A of FIG. 79, and the SDS gel electrophoresis result graph of the modified fusion protein is seen in B of FIG. 79.
# The purified GPR75 was used for determination of affinity to CCL5 ligand via surface plasmon resonance (SPR). The used instrument was Biacore 8K, and the chip was Series S Sensor SA Chip:SA-2429. Both a protein immobilization buffer and a running buffer contained 20 mM HEPES, 150 mM NaCl, 0.005% LMNG and 0.0005% CHS, pH 7.4. The affinity determination results are seen in C of FIG. 79.
substance,measurement,value
CCL5: CCL5 ligand of the obesity-related receptor GPR75,affinity (SPR),close to reported results

# — patent publication US20260209311A1, “MODIFIED G PROTEIN COUPLED RECEPTOR AND USE THEREOF” (ALPHELIX BIOTECH CO., LTD., priority 2023, published 2026)
